The values below come from patent US20230312724A1 (KADMON, published 2023).

A word on the Kd: it is the concentration at which binding is half-saturated. Low readings indicate tighter binding, high ones weaker binding. For orientation: EC50 means the midpoint of the concentration-response curve. As usually defined, the EC50 (read off the curve) is the concentration that produces a half-maximal response.

Test [1] has as its target T1, mouse B7-H4-Fc (mouse; human).
T1 construct: also called mB7-H4-Fc; mB7-H4-hFc
Put plainly: SPR (Biacore). The procedure, abridged: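 Ligands (human B7-H4-Fc, human B7-H4-his, mouse B7-H4-Fc) were amine-coupled to CM5 chips at 50-100 RU. Analyte was injected at 100 nM to 0.1 nM in HBS-EP, pH 7.4, at 25 °C, with 180 s association and 1000 or 1200 s dissociation. Kinetics were fitted to a 1:1 Langmuir model.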
Background: In SPR one partner is held on a chip, and binding of the other changes the refractive index at the surface.

Test [2] deals with T2, mB7-H4 (soluble mouse B7-H4, construct not named) (mouse, UniProt Q7TSP5 25-257, limits assumed).
T2 sequence: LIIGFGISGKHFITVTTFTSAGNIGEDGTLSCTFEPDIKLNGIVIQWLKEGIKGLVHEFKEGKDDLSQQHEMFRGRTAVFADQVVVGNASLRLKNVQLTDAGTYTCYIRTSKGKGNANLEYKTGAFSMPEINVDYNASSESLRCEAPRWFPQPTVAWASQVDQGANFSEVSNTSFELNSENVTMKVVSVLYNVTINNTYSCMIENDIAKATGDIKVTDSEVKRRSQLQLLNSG
Briefly: ELISA, mB7-H4. The procedure, abridged: (§1)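 Human or mouse B7-H4-Fc (or his-tagged), about 1-2 μg/ml, was coated overnight at 4° C and blocked with 3% PBS+milk. Serially diluted antibodies bound for 1-1.5 h at RT, detected with HRP-conjugated anti-hFab and TMB, stopped with 1N H₂SO₄. EC50 came from OD450 versus antibody concentration curves.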

Test [3] has as its target T3, human B7-H4 expressed on cells (human, UniProt Q7Z7D3 25-282).
T3 construct: Transfected CHO cells or tumor cell lines that carry hB7-H4; also called cellular hB7-H4
T3 sequence: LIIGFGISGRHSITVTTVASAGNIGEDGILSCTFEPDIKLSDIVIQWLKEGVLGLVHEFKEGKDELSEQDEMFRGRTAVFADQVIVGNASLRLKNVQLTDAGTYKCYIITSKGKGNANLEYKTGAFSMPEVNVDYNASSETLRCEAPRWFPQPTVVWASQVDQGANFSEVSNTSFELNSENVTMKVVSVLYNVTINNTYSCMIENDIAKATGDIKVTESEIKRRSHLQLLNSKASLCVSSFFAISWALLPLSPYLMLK
Put plainly: flow cytometry, MX-1 cells. The procedure: (§2) Cells were harvested, washed once, and then re-suspended to the concentration of 1×10⁶ cells/ml in ice cold FACS Buffer. 25 μl of cell suspension was added to each well of a 96-well round-bottom microliter plate. Serially diluted antibodies or fusion proteins were added to each well and incubated for 1 hour at 4° C. Cells were washed three times by centrifugation at 1500 rpm for 5 minutes, and then stained with secondary antibody (1:200 dilution) for 30 min at 4° C. in the dark. Cells were washed once, re-suspended in 100 μl PBS buffer and then analyzed using Guava Flow Cytometry EasyCyte system.
A general note: In flow cytometry, cells or beads pass a laser one at a time.

Test [4] deals with T3, human B7-H4 expressed on cells. Put plainly: flow cytometry, MDA-MB-468 cells. The procedure:
as §2

The target in test [5] is T4, IgV domain of mouse B7-H4-Fc (mouse; human).
T4 construct: also called mB7-H4 IgV domain
Briefly: ELISA, coated mB7-H4 IgV domain. (ELISA stands for enzyme-linked immunosorbent assay.)

In test [6] the target is T5, human B7-H4-Fc (human).
T5 construct: also called hB7-H4-Fc; hB7-H4 Fc
Put plainly: ELISA, coated hB7-H4-Fc.

Test [7] concerns the target T5, human B7-H4-Fc. Briefly: ELISA, coated hB7-H4-Fc. The procedure: (§3) About 1-2 μg/ml of human or mouse B7-H4-Fc (or his-tagged) was immobilized on ELISA plates (Immuno 2HB, Thermo scientific, cat #3455) at 4° C. overnight. After blocking the plates with 3% PBS+milk, serial diluted antibodies were added to the blocked plates and incubated at RT for 1-1.5 h. After washing the plates with PBS-T (0.05%), horse radish peroxidase (HRP)-conjugated antibody targeting the hFab was added to the plate. Signals were developed by adding 3,3′,5,5′-Tetramethylbenzidine (TMB (followed 1N of H₂SO₄ to stop the reaction. The OD at 450 nm was read by ELISA plate reader (Infinite M1000 from TECAN). GraphPad from Prism was used to plot OD450 vs. antibody concentration curve and to calculate the EC50 values.
The source holds these as a separate data set.

Test [8] deals with T1, mouse B7-H4-Fc. Put plainly: ELISA, coated mB7-H4-Fc. Put shortly:
as §1

In test [9] the target is T6, human B7-H4-his (human, UniProt Q7Z7D3 25-259).
T6 construct: also called hB7-H4-his; hB7-H4 his; not shown: his tag
T6 sequence: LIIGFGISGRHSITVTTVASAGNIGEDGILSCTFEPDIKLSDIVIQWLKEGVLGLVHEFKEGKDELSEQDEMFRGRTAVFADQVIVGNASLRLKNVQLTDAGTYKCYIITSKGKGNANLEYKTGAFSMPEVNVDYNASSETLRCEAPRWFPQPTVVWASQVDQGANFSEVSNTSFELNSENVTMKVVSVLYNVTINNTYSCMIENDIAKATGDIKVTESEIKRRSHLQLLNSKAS
Briefly: ELISA, coated hB7-H4-his. Put shortly:
as §1

In test [10] the target is T6, human B7-H4-his. Briefly: ELISA on coated hB7-H4-his. How it is done:
as §3

Test [11] has as its target T4, IgV domain of mouse B7-H4-Fc. Put plainly: ELISA on coated IgV domain of mB7-H4. The procedure: as §3
In test [12] the target is T1, mouse B7-H4-Fc. Put plainly: ELISA, coated mB7-H4-Fc (title on the sheet: Binding to mB7H4-Fc). The procedure: ELISA experiments were performed to determine binding to hB7-H4-Fc (FIG. 4A), hB7-H4-his (FIG. 4B), hB7-H4 IgV domain (FIG. 4C), and mB7-H4 IgV domain (FIG. 4D). Flow cytrometry experiments were performed to determine binding to CHO cells expressing hB7-H4 (FIG. 4E) or mB7-H4 (FIG. 4F). […] A cross-reactive IgV binding antibody was used as a control.
as §3

Read-outs that look alike come from different tables or passages of the source.

T1 sequence (chain, as listed by the source): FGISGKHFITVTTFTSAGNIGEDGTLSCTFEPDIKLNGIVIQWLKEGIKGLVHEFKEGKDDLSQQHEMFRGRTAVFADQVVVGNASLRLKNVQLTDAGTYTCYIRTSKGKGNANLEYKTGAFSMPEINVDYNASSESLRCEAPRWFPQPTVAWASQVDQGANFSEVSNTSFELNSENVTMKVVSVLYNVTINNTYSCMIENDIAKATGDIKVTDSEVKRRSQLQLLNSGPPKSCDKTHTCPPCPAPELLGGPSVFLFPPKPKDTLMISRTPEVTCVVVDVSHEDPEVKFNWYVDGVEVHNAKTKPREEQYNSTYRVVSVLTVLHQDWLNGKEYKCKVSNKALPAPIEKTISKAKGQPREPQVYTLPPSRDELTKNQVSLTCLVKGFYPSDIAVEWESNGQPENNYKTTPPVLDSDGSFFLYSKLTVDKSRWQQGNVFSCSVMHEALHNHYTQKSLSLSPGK
T4 sequence (chain, as listed by the source): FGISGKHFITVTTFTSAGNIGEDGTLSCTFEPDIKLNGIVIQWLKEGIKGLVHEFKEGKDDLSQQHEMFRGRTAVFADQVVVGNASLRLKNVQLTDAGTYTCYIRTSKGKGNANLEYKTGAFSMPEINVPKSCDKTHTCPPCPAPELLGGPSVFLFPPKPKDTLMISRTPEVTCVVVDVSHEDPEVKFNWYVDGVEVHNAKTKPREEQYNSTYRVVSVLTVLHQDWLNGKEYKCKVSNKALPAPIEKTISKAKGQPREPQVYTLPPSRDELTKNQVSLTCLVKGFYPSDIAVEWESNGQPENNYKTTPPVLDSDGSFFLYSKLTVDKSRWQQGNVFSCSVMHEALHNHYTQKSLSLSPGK
T5 sequence (chain, as listed by the source): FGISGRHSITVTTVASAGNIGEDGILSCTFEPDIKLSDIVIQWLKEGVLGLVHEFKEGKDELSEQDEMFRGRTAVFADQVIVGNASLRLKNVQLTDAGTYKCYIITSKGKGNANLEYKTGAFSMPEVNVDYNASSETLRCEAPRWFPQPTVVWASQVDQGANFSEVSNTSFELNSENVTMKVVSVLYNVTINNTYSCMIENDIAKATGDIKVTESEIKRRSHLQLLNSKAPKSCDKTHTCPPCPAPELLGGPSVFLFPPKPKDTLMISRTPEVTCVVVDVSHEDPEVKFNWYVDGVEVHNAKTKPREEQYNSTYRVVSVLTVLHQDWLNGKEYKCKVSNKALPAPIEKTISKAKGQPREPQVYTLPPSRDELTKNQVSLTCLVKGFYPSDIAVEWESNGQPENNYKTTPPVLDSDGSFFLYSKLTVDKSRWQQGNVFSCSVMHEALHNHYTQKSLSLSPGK

B1: 39A11/57G8 (antibody, human IgG1, V domains shown)
VH: EVQLLESGGGLVQPGGSLRLSCAASGFTFSSYGMHWVRQAPGKGLEWVASISSSSGYIYYADSVKGRFTISRDNSKNTLYLQMNSLRAEDTAVYYCARASSGMDVWGQGTTVTVSS
VL: DIQMTQSPSSLSASVGDRVTITCRASQSIRSYLNWYQQKPGKAPKLLIYYASSLQSGVPSRFSGSGSGTDFTLTISSLQPEDFATYYCQQYYSTPLTFGQGTKVEIK
notes: 39A11 VH with 57G8 VL
As for B1, the Kd with mouse B7-H4-Fc [1] was 0.0518 nM. Moreover, the 50% effective concentration (EC50) in test [2] is 0.096 nM; in [3], 8.87 nM; in test [4] it was 13.1 nM. Besides, the “EC50 (read off the curve)” value in test [5] was roughly 0.2 nM.

B2: Control antibody 1 (antibody 20502 described in US20190085080A1) (antibody, V domains shown)
VH: QLQLQESGPGLVKPSETLSLTCTVSGGSIKSGSYYWGWIRQPPGKGLEWIGNIYYSGSTYYNPSLRSRVTISVDTSKNQFSLKLSSVTAADTAVYYCAREGSYPNQFDPWGQGTLVTVSS
VL: EIVMTQSPATLSVSPGERATLSCRASQSVSSNLAWYQQKPGQAPRLLIYGASTRATGIPARFSGSGSGTEFTLTISSLQSEDFAVYYCQQYHSFPFTFGGGTKVEIK
notes: also called (+) control Ab1; (+) Ab1
In turn, B2 returned a Kd with mouse B7-H4-Fc [1] of 0.509 nM. Further, the half-maximal effective concentration (EC50 (read off the curve)) in the test with human B7-H4-Fc [6] was roughly 0.02 µg/mL; in the test with human B7-H4-Fc [7], roughly 0.1 nM; in the test with mouse B7-H4-Fc [8], roughly 0.1 nM; with human B7-H4-his [9] it was roughly 0.2 nM; with human B7-H4-his [10] it was roughly 0.2 nM; in test [5], roughly 0.3 nM. Further, the “EC50 (read off the curve)” value is roughly 0.2 nM in [11] and roughly 0.02 µg/mL in the test with mouse B7-H4-Fc [12].
